This is an account of results in paper PMC5434802.

Assay in all cases: EMSA
Common to all, as to conditions: EMSA conditions not in material; end-labelled fragments pre-incubated with Fis and/or FNR before RNA polymerase
Background: Mobility shift assays separate free from complexed probe on a gel.

For data set [1], the target named is T1, FNR D154A D154A (Escherichia coli K-12?) (UniProt P0A9E5).
T1 sequence: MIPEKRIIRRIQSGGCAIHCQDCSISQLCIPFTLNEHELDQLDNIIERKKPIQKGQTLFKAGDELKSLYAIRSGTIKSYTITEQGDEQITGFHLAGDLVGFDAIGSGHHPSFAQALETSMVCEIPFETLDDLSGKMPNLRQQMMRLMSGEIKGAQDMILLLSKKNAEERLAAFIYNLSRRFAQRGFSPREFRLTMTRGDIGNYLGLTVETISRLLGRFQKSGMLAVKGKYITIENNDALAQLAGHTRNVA

Data set [2] has as its target RNA polymerase (Escherichia coli) (UniProt P0A7Z4+P0A8V2+P0A8T7+P0A800+P00579).
The target in data set [3] is Fis;FNR D154A;RNA polymerase D154A (Escherichia coli K-12?;Escherichia coli K-12?;Escherichia coli) (UniProt P0A6R3+P0A9E5+P0A7Z4+P0A8V2+P0A8T7+P0A800+P00579).
For data set [4], the target named is T2, Fis (Escherichia coli K-12?) (UniProt P0A6R3).
T2 sequence: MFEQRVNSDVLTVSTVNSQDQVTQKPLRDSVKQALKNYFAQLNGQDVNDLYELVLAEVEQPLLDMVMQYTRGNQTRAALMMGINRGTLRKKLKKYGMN

In data set [5] the target is Fis;FNR D154A D154A (Escherichia coli K-12?;Escherichia coli K-12?) (UniProt P0A6R3+P0A9E5).
The target in data set [6] is FNR D154A;RNA polymerase D154A (Escherichia coli K-12?;Escherichia coli) (UniProt P0A9E5+P0A7Z4+P0A8V2+P0A8T7+P0A800+P00579).

Turning to “AGCTTACATTGCTCGCCCCTATGTGTAACAAATAACCACACTGTGAATGTTGTCTTTAATCAATTGTAAGTGCATGTAAAATACCACTTTAGAGTTAGTCAGG / AATTCCTGACTAACTCTAAAGTGGTATTTTACATGCACTTACAATTGATTAAAGACAACATTCACAGTGTGGTTATTTGTTACACATAGGGGCGAGCAATGTA [pnrf97 E. coli K-12]”, the binding entry in data set [1] is reported as “binds”; in data set [2], “binds”; in data set [3], “binds more weakly”; in data set [4], “binds”; in data set [5] it was “binds”; in data set [6], “binds more weakly”.

Turning to “AATTCCTGACTAACTCTAAAGTGGTATTTTACATGCACTTACAATTGATTAAAGACAACATTCACAGTGTGGTTATTTGTTACACTTAGGGGCGAGCAATGTA / AGCTTACATTGCTCGCCCCTAAGTGTAACAAATAACCACACTGTGAATGTTGTCTTTAATCAATTGTAAGTGCATGTAAAATACCACTTTAGAGTTAGTCAGG [pnrf97 EHEC]”, the binding result in data set [1], in data set [4] and in data set [5] was “binds” throughout.
